Patent US20260166084A1 (INSTITUTE OF CANCER RESEARCH ROYAL CANCER HOSPITAL, published 2026)

Assays:
[1] = target: T1, CRBN/DDB1 protein complex (no IMiD) (UniProt Q96SW2 1-442; Q16531 1-1140, limits assumed); assay: size exclusion chromatography (Superose 6) with SDS-PAGE of fractions, no iberdomide
T1 construct: As used in the SEC sample without iberdomide; also called CRBN/DDB1 complex
Description: Purified CRBN/DDB1 protein complex and iTAG2 protein were mixed together and subjected to SEC in the presence or absence of iberdomide, shown in FIG. 14.
100 μM iberdomide was included in one of the samples and both were incubated on ice for 1 hour, then centrifuged at 21000 g for 10 minutes prior to injection to remove potential aggregates. The Superose 6 column was pre-equilibrated in the same buffer (20 mM HEPES pH 7.0, 200 mM NaCl and 1 mM TCEP) at a flow rate of 0.25 mL/min before injection of 50 μL of each sample.

[2] = target: T2, complex formed between CRBN/DDB1 and lenalidomide (UniProt Q96SW2 1-442; Q16531 2-1140, limits assumed); assay: TR-FRET displacement of Sulfo-Cy5 Aiolos peptide probe from CRBN/DDB1 with 10 uM lenalidomide. The figure is told overall for the three IMiDs.
T2 construct: mature; Same proteins as m3 with 10 uM lenalidomide. 'mature' stands for the printed 'WT full length'; also called CRBN/DDB1 in the presence of lenalidomide
T2 sequence (Q96SW2 whole entry, chain 1 of 2): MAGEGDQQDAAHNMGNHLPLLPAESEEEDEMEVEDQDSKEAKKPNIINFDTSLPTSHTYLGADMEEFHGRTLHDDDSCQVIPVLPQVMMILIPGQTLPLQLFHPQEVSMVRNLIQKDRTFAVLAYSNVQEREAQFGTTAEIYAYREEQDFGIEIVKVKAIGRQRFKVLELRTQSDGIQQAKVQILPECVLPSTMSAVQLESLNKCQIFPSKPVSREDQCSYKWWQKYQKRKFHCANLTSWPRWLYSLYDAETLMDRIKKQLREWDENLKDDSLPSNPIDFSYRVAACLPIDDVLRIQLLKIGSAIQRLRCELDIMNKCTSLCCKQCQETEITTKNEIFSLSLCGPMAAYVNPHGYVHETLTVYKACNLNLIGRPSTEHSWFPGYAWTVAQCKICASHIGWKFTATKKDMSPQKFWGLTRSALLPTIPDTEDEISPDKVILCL
T2 sequence (Q16531 2-1140 limits assumed, chain 2 of 2): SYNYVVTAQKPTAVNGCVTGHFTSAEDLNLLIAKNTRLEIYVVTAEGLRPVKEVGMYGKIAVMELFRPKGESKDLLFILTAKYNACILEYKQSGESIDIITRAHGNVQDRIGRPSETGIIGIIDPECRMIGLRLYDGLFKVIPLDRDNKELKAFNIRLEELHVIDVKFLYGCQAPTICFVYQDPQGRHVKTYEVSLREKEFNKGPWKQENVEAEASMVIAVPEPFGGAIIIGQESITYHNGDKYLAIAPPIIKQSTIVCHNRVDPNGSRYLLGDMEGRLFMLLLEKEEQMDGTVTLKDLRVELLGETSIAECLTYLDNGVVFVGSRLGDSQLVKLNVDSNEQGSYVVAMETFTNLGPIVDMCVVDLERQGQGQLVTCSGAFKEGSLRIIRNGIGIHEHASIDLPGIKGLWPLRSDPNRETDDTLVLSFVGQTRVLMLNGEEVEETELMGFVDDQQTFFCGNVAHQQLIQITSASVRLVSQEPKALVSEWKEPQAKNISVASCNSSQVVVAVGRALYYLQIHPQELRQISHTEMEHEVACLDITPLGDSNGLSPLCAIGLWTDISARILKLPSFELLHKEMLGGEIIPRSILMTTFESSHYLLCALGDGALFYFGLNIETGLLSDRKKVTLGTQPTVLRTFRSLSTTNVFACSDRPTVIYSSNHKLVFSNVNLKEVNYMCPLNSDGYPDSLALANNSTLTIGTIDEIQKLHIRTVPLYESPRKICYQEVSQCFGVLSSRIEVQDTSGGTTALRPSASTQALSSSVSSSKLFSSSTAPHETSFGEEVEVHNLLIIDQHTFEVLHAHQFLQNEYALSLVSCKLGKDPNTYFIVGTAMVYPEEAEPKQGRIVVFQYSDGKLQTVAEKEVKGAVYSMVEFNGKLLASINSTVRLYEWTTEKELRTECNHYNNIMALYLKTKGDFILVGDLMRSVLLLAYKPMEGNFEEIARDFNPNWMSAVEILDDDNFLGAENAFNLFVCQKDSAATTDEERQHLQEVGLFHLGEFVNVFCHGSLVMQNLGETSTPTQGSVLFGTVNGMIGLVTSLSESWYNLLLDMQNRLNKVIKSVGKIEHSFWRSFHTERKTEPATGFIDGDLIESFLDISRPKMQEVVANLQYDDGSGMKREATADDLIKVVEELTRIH
Description: (§1) All TR-FRET assays were ran in Black 384-well ProxiPlate Plus (Perkin-Elmer, USA), in a buffer containing 20 mM HEPES pH 8.0, 150 mM NaCl, 0.5 mM TCEP, 0.05% Tween 20 and 0.05% BSA, with a final assay volume of 10 μL. An Echo E550 (Beckman Coulter, USA) acoustic liquid dispenser was used to create final concentration ranges from 82 μM down to 2.05 nM for iTAG1 and 27 μM down to 0.68 nM for iTAG2. […] Finally, IMiDs were added to a final concentration of 10 μM with the Echo. Plates were sealed, centrifuged at 200 g for 1 min and stored overnight at 4° C. The TR-FRET signals were read using a PHERAstar FSX plate reader (BMG Labtech, Germany).

[3] = target: T3, complex formed between CRBN/DDB1 and pomalidomide (UniProt Q96SW2 1-442; Q16531 2-1140, limits assumed); assay: TR-FRET displacement of Sulfo-Cy5 Aiolos peptide probe from CRBN/DDB1 with 10 uM pomalidomide. The figure is told overall for the three IMiDs.
T3 construct: mature; Same proteins as m3 with 10 uM pomalidomide. 'mature' stands for the printed 'WT full length'; also called CRBN/DDB1 in the presence of pomalidomide
T3 sequence (Q96SW2 whole entry, chain 1 of 2): as the sequence (Q96SW2 whole entry, chain 1 of 2) above
T3 sequence (Q16531 2-1140 limits assumed, chain 2 of 2): as the sequence (Q16531 2-1140 limits assumed, chain 2 of 2) above
Description: as §1

[4] = target: T4, complex formed between CRBN/DDB1 and iberdomide (UniProt Q96SW2 1-442; Q16531 2-1140, limits assumed); assay: TR-FRET displacement of Sulfo-Cy5 Aiolos peptide probe from CRBN/DDB1 with 10 uM iberdomide. The figure is told overall for the three IMiDs.
T4 construct: mature; also called CRBN/DDB1 in the presence of iberdomide; CRBN/DDB1 with CC-220
T4 sequence (Q96SW2 whole entry, chain 1 of 2): as the sequence (Q96SW2 whole entry, chain 1 of 2) above
T4 sequence (Q16531 2-1140 limits assumed, chain 2 of 2): as the sequence (Q16531 2-1140 limits assumed, chain 2 of 2) above
Description: as §1

T1 sequence (Q96SW2 whole entry, chain 1 of 2): as the sequence (Q96SW2 whole entry, chain 1 of 2) above
T1 sequence (Q16531 whole entry, chain 2 of 2): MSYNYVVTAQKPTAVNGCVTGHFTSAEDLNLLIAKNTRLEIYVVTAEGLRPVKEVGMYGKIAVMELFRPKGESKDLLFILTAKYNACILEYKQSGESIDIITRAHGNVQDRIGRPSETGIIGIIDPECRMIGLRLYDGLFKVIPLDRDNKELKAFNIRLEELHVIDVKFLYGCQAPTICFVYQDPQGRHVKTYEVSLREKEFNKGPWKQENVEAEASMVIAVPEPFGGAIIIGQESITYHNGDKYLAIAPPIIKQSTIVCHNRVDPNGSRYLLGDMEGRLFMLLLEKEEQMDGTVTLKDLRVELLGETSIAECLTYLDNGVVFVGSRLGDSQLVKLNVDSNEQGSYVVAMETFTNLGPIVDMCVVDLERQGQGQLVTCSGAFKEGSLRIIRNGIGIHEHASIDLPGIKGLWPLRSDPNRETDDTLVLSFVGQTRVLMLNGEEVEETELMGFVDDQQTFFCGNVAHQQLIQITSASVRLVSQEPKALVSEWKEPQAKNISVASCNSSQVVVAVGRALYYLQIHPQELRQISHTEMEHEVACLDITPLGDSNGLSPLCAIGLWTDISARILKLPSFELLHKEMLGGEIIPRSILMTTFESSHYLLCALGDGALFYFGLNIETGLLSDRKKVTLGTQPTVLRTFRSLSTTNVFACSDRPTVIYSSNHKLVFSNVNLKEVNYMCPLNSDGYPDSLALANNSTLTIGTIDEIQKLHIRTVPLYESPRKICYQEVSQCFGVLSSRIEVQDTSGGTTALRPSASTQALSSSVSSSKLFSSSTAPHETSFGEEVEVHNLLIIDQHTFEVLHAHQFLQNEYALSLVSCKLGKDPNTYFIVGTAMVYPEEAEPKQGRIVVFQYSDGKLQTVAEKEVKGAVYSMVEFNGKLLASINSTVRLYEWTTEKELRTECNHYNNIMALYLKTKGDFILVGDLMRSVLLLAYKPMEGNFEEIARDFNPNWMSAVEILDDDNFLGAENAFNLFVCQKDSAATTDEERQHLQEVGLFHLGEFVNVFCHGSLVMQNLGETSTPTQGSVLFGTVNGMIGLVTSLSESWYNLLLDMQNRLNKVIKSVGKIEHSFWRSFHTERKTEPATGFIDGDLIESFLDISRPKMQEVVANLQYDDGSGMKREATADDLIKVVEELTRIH

B1: iTAG2 (DCD23mut) (designed binder)
chain: PNVLMVHNESHTGEIPLQCEICGFTCEQAGNLLNHIELHSGEIPFKCHLCNYACRRRDAL
notes: Purified iTAG2 protein
binding result [1]: no binding (tested: CRBN/DDB1 at 15 uM and iTAG2 at 50 uM) | fold difference of IC50 against iTAG1 [2]: ~10 fold | fold difference of IC50 against iTAG1 [3]: ~10 fold | fold difference of IC50 against iTAG1 [4]: ~10 fold
